Experimental data: a protein production outcome set (Wang et al. 2014)

Assay: label from the status in PepcDB records

Row | Sequence | protein production
1 | MEALVRCLRSGQFLLIIDNLESVLQPDRQWGSLFYGDFFQAWIESGGNSKVLVTTRERPELKGFEWLTLKGLQVDEGVALLTALGIKGNLGEFVELVDGHPLLLRLVADLLKEEYPQDPDLSRLADLGLGNLQQLLTDSQVVGVHRRENVGMVLVLDASFHRLSELQKALLLNISVYRGAVDSAAAVAMLPGNSAAEIEKELRNIVKRSLLVEKLNGKRRFEFQPVVLEYVRYKAGDQSEAHQRAIDYYRSVAKQPPWTTKDDVREYLEIFDHFYQLQDYDSAFDNIRVCSKFLGLCGFFVDKVELYGQLISKWKEIGERENWNYGASLTALGNAYRYLGEYQRAIELFQQSLEIFRDIGDRNGVSNSLIGLGNTYNSVGEYQRAIELFQQSLEISRDIGDRNGVGGSLMGLGNAYNSVGEYQRAIELFQQSLEISRDIGDRNGVGNSLIGLGNAYHSLGEYQRAIEFRQQSLEIFRDMGDRNGVSISLNNLGNTYYFLGEYQRAIEFHQQSLEISRDIGDCNGVGRSLNNLGNAYYSLGKYQQAIEFHQQSLEIKRDIGDRNGVGTSLNNLGTAYSSLGKYQRAIELFQQSLEIKRDIGDRNGVGTSLMNLSNAYYRCGKIREAFAVWHQAESIFQELQLPFEAMPYPQWLKSLIKFAQRGWFQFILCFIFGLIAFPFALVWLILLFLWPSISSQFRR | failed
2 | MEAPKMALSDVKCRNARPASKLVKLSDGGGLQLWVQPTGSRLWRLAYRFGGKQKLLALGSYPLISLAEAREARDTAKRLLLRGIDPAQERKSQKASAEDTFRSIAEDYVDKLKKEGRADRTITKVKWLLDFAYPTFGDKSVREIDPATILAALRSVEVRGRYESARRMRSTIGSVFRYAIATARADVDPTIALRGALVGPTVTPRAAVTDPKALGGLLRAINAFDGQPTTRAALKLMALLFPRPGELRAAGWDEFDFESSVWSIPEGRMKMRRPHRVPLSTQAVSVLTSLREISGGGSLLFPSVRSGSRPISDNTLNAALRRMGYGKEEATAHGFRATASTLLNECGKWHPDAVERQLAHIENNDVRRAYARAEHWEERVRMMQWWADYLDELESKNSRVVSIGGREASLLSIHPREGLVWKPTATVRQTTSRTSNLRKSH | failed
3 | MEATAVNPSIVTASRTVQPYRRLSTLSLRFPTYRNKRVSPFTLTITRCSTTKSREAGQDSSISLKRGLVFDLGVSKDSWHSEEIGSPVVKRFLSDNEERWYMWYHGSSKQNPVSDSIGLAVSNNGIHWERGNGKVESSEDVGLVMSCGEDWWGFDTASVRPGEVVIMSSSKVRANSSVYWMYYTGYTKETVEFQSQDFTSVLGNPERFHLCDENAEKSRVYYRSLPGLAISQDGRHWARIEGEHHSGALFDVGSEKDWDFLYIASPHVVFHGDGDLRMYYHSFDEKTGEFCIGMARSRDGIKWLKLGKILGGRKSEKDGLGFFDELGGRYPCVTRNKRDESYVMAYEGVDRTGKTSIGFAVSKDGIKDWKRVQDEEAVIAVGEGGAWDNEGVGCPYLIEMDGDSDHQWRLYYRGVGNGGRTAMRGEQFELEEDRDGPLELLQSLRSKATELLLREEWEESIKVYTEFIDLSRRQVSSTGGSDPDPDSIAKLRKSLCLALCNRAEARARLRDFLEAMRDCDQALEIEKTHFKTLLCKGKVLLGLSKYSLALECFKTALLDPQASDNLETVTVYIEKCKKLEFQAKTGAFDLSDWILSEFRGKCPELAEFIGSIEIKKSELSGRGLFATKNIVAGTLVLVTKAVAIERGILGNGECGEKAQLIMWKNFVEEVTESVRKCGRTRRVVSALSTGQGEDSLEIPEIALFRPDEAFETCGDWKQSLDTEKLLSILDVNSLVEDAVSGKVMGKNKEYYGVGLWTLASFINHSCIPNARRLHVGDYVIVHASRDIKTGEEISFAYFDVLSPLEKRKEMAESWGFCCGCSRCKFESVLYATNQEVREFEMGLERGVDAGNAVYMVEEGMKRWKVKGKDKGLLRASYWGVYDEIYNSERLMKRWGRKIPTMEVVVDSVSDVVGSDERLMKMAVEGMMKKHGGFSNIVEMEKIMKLGKGVYGKVVSKKKAMKTLLGIE | failed
4 | MEAWIFEIMRAVGRFFLHPAVYVFLISSIFVGYLRMLRERKDFSFKVYDIWFELRTSLLAGVKYGLIVSIITIGLGLVVSKASLWAILLWTLLFGLTAMYRYLSAAYTFSVAIVCVLLSSKLPVSFLQLGEGEENTIVSLAILLGIMLVVEGLLISKNAVGYSTPKIRKGKRGLKIGLHESKRLWIVPIFILVPGEAVTQFISWWPVVSIGSHTYSLFLVPFLIGFMRRIRSYEPTEALLFTGRRVYGLAGLVLVLGIASYWWHVLAIIAMGVAMLGRFTISMQEKIADETRPAYFAARNDGLVVLDTIPNTIGAELNLLPGEMITKVNGVIPRSAEEFYDALQTKTTGAFCKLEVLDTNGELRLAQTALYAGGHHELGIVFVQQEHEWDSEAM | failed
5 | MECAEKVEAEIPGQAGRRAGKPSRTYYLEVYGCSLSEFDALIMASRLEEAGYRRVARPEDADVILVNTCAVRLDTEQRIAERLEKLRLQLPDRKYVVAGCLVKARPGLVARLVPEASLLAPQAVERVLDAVDALESGRRLVVLDGRRDTRSMPQLPITDAVVTVMIQEGCLGDCSFCITKVARRQVRSYSPRVIVERVREAVEKGAREIRLTGTDVAVYGVDLPGKPNLADLVAAILEKVEGDYRIRVGMMTPDQVEPYLDSLLDVYRDERVYKYFHLPVQSGDDEVLKIMKRNYTVSEYKAIHRRIKSRFPDAMIATDIIVGHPGETWEAFWNTVRLVEELRFEKVHLAQYSLRPHTEAASMEQVPDSVKKERSRILGKIVAEIGLEINGSYVGRRVRALVTERSWREGSMTGRLDNYTPIILPYEERAMGRWVYAEVEEATFFDLRSSKFEPAPLEHHHHHH | failed
6 | MEDFYLNSRGLAGYFEAQWFDKFVEDKQVDAITSESKLVPLSFAKSSHCSQVADFITQAVSKNGKPPHALLGVGAALGRNYYELVQRLDSLKQATLVEPSGMLLNGLKQLLVEEQQVELTYIHGLNTLKTVEVDNRELVQNCAHVDLELINQPLEKDTVSKFYDLVVCLNVLDQCESPLRVINALKQATQIGGVLVVSCTYQWNAKHIKDRAEAVDDIKAYFGEDWRFVSEAEHEYRMRFNERYAMQFLSHVVAYVRTT | failed
7 | MEDGIENTSPFNGNGESGFFKLPDREILESFRLQKVFPDSPFGFPSGHVALTTALWGGASRVFNSRTAGRLAPMVVLLMAFSRMYLGRHFLGDVIGGAALGLTLLVVFTYFLKSPLKDDFFEKENFKLAFRQKNLFFYSAMFAVPVVFVSLSLISGEVAGFFLGTNTAYLLIIRKGLPEDEGSTGQRALRVFITLMMFGLSALVLDAGFGIIGIAGYPDDTLIEFLKSFIPAFTIWISVSICIKLGLYNIASTEQIE | failed
8 | MEDHHHLPENLKPFFHRATEAQERLAKLEAALASTKTDIPDAKLVEENKQLQSKLEEANATVKQEQTKVKDLTIENAKHKYRILHLVRALKDADQKLERLSK | failed
9 | MEDIIVVENLVKKFGDFEAVKGVSFSVKKGEIFAFLGPNGAGKTTTIHMLTTLLKPTSGKAWVAGHDVLKEPREVRRKIGIVFQDQSLDRELTAYENMYIHGKIYGYGGEKLKKRILELLEFVELLEFKDKPVKTFSGGMARRLEIARSLIHEPEVLFLDEPTIGLDPHTRAHMWEYISKMKKEHNMTIFLTTHYMDEAEQLADRVAIIDHGKIIALGTPTELKRMVGKEIIYVRFSEAVECLEGDFIESCRKLPDGRLELNVEDSGRAIPKIFELAQQKGLKIEEITYHKPTLNDVFLHLTGRELREEGPENSFKTMARMRMRMRR | not failed
10 | MEDPLGRLEWIKFLSAFYDKEDKAENYFNQQVSKVMATENKVSSLKKPKVAFGMVDNGKVYIPAKNSYAAKMVDMAGGDYIFKDLNNKSGYITLEDFYSKSKDADVLIYSSSKEYTPSLKSMLSAAPILKTIKPVKNKKVWCFGKDYYQAIDKTDEIIEDLASIFHPESFKGLEHHHHHH | failed
11 | MEDSGAILCQISIFKDMLDQVNREIEANIQVTREIESQIGACSEIESSLSLKEPELTRSFLASQFEISGLISVTADSRNSLKLLEDEICCLRSEHSELITKTNREAVNINNCIVLDFV | failed
12 | MEDSGKTFSSEEEEANYWKDLAMTYKQRAENTQEELREFQEGSREYEAELETQLQQIETRNRDLLSENNRLRMELETIKEKFEVQHSEGYRQISALEDDLAQTKAIKDQLQKYIRELEQANDDLERAKRATIMSLEDFEQRLNQAIERNAFLESELDEKENLLESVQRLKDEARDLRQELAVQQKQEKPRTPMPSSVEAERTDTAVQATGSVPSTPIAHRGPSSSLNTPGSFRRGLDDSTGGTPLTPAARISALNIVGDLLRKVGALESKLASCRNLVYDQSPNRTGGPASGRSSKNRDGGERRPSSTSVPLGDKGLGKRLEFGKPPSHMSSSPLPSAQGVVKMLL | failed
13 | MEEASEGGGNDRVRNLQSEVEGVKNIMTQNVERILARGENLEHLRNKTEDLEATSEHFKTTSQKVARKFWWKNVKMIVLICVIVFIIILFIVLFATGAFS | failed
14 | MEEEEARQVVIDNDLKKKIKETVKKILKRSSLLEITEIKAREEASSELNLDLSRDPYKIIVREAVDSFIEKAIMTIDTEMGKLHTQIVEDVDGEVTENATKTTTKKKKKKKAKKKVEEEESSPA | failed
15 | MEEGKKMKRIIGMIVSLALLAGLLAGCSTSATGSNINTPAAQAEKTPGAGGSGAEEAAWPRTIVDATGKEITLTEQPQRIAILHSLYLEYFLALGTPPIASAGASTGDAMKALGEWETLKPYAGTAKIIDLGSARDLNLEAILGANPDVIVTFKGQGNLDKIYEQLEQIAPVILVDFSAPWQEQILACAEIVNKEADAQKLIKEIEDSVQSAKEKLSRHQDKTIAIFRTDGGKAFVTRGNKDYYDTFGIAKPEGYPDDYETLSLEAVAEMNPDYIIFQDFITTSQAFVKTQEASSVWQAMEAVKKGQVVYFDDSLNTFGPLATKLTAEKLIQIISD | failed
16 | MEEKRLVIVGTAHVSKRSVEEVAEVIEREKPDAVAVELCPRRYHALVHGQREEISVADVIRKGNVFMLLFQLILAYFQRKVGEETGVKPGSEMLAAIEKAREAGADVLLIDRDIGLTFTRFWQKLTFVEKIKLIFHLVRSTFSGDEIEVDEMLEEDVLDMLVKEFRKISPNAAKVLIDERDVYMAANLLNALSRYNRIVAVVGAGHRKGIEEALLKLKENPV | failed
17 | MEEKSKYLSLVGAGALIGSISTVALLKLLSRSSLKQLNENPETNFLAGNGIESETRPDTVANGQDLLKDEIVSEHLTRNIQFFGLESQHKVTGSYVVVIGLGGVGSHAASMLLRSGVGKLLLVDFDQVSLSSLNRHAVATRADVGIPKAMCLKKHFSSIFPECHIEAKVMLYDSSSEEEILSGKPDFVLDCIDNIDTKVGLLAACVKRGLKVLSATGAGARADPTRIRVADIRESTIDPLSRSVRHRLRRKHGIEGGIPVVFSLEKPKAKLLPFEGTNGEDENPLDYQVVPGFRVRIIPVLGTIPAIFGQIMASYVITQLAGVQVQMEPIVNLDLDHYRLLHQRLIEHEETVYGTSAEVEVDVEEVMYIVKELWHGRSARDETAKDVGRGMWRAMNELMLVRWDAKKPATVSNLVLLKFKEADEHETKTLEEVKESETEFFERVSCVLKKAELDFYG | failed
18 | MEELDEKLANRVQVSKRAVAKIVQVIDRLMQRNEKITHVLKGDSLASAGSGSGAGAGGEEEQQQASGDAETTTSSAGVHALEETLKQTHIEIMSENHKLQNLNTSLHEKFHTMSLKMKEYQDAHTAKETENAELKNQIDELQYDLEKIHCRNDKLENHLAEAIEKLKAYHQIYGDPNKSTNSAKTPTTTGSGGATTSVNSQLLEELQKELEEYRELAN | failed
19 | MEEMGSRSDTIMVASLNRETKEIKLVSVYRDTLLQLSDGTYNKANAAYAYGGEEEAVAMLNKNLDLNIEHYVSVDFSVLVHVIDALGGIDINVEEAENGMDIIPYLNNYVVEVIKNTGVDSAPFTQLGQQHLNGVQATAYARLRYGGGDDYKRTERQRQVLEQIAIKAQKAKLSTINKIIDKVFDNVKTNFTLTETIAYAKDVKSYIFGETQGFPYESTTADLDVGNSVVATDLASDVTKLHQFLFGENDYTPSSTVQSISEDISNSTYDTGESYDTEYDEYGYSQDYSGYDSGYTDNSYGTGGYQDSGYGDGSSGNGYTEDTGGDYVPPSDGGGTDSGSSDSNSQIPDTGTGDSGDTGGESLELEHHHHHH | not failed
